1 substance from paper PMC5306358 can be followed below.

This assay has as its target tissue factor (TF), endogenous on human cells (human (endogenous in HMVEC, HUVEC, HAEC, MDA-MB-231)) (UniProt P13726).
UniProt P13726, sequence (P13726 33-295): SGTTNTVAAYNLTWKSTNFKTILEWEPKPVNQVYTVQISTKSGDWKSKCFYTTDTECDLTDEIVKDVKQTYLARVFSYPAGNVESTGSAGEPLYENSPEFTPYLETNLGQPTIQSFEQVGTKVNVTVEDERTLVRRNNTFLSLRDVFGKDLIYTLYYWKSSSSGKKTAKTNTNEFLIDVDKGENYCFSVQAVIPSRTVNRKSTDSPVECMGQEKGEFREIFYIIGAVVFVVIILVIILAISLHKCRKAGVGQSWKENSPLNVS

On to mfVII/NLS-SnCe6 conjugate (ligand), for which the clonogenic assay of angiogenic HMVEC after fVII-tPDT with fVII/NLS-SnCe6 (0.0, 0.5, 1 and 2 μM SnCe6, 635 nm laser light at 36 J/cm^2); EC50 of SnCe6 for killing amounted to 0.031 µM.
